Test results as given in the supplement of paper PMC10724198.
± gives the standard deviation of the averaged measurements.

Test system: Saccharomyces cerevisiae
Assay: protein stability index of tFT-peptide fusion (C-terminal peptide) (PSI (0-1 scale)); higher = more stable (slower turnover)
Conditions: genetic background: wild type; temperature: 30 C
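Further: PSI is a weighted mean of sequencing reads over stability bins, variants kept only with over 10 reads, mCherry proximal and sfGFP distal, peptide attached via GGGS linker.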

PVGEEPRPRNVR
protein stability index: 0.674 ± 0.063

PVGWVEASLSPG
protein stability index: 0.721 ± 0.027

PVLFSPPSPFFP
protein stability index: 0.708 ± 0.083

PVLGRTLAFRSL
protein stability index: 0.659 ± 0.057

PVLHSPHSLPPR
protein stability index: 0.734 ± 0.11

PVLLPPCCLAIV
protein stability index: 0.548 ± 0.026

PVLRPPTPPRFR
protein stability index: 0.661 ± 0.028

PVPKAPPCNRRR
protein stability index: 0.663 ± 0.0099

PVPLRPLSPPPP
protein stability index: 0.68 ± 0.0099

PVPPPLSPLPTP
protein stability index: 0.703 ± 0.11

PVPPRLPLPAPL
protein stability index: 0.757 ± 0.051

PVSPPLPTPPPP
protein stability index: 0.616 ± 0.056

PVSVCADRPPAP
protein stability index: 0.715 ± 0.063

PVVFAGLLLHGH
protein stability index: 0.694 ± 0.042

PWGGLGTGWGRR
protein stability index: 0.75 ± 0.035

PWGSGSDRAGRG
protein stability index: 0.746 ± 0.062

PWVLSLASGSPS
protein stability index: 0.687 ± 0.026

PYAPYRPQVDSS
protein stability index: 0.708 ± 0.018

PYFQASLSCLPS
protein stability index: 0.744 ± 0.036

PYKASGLAGCAV
protein stability index: 0.697 ± 0.008

PYLLDTPPPSTP
protein stability index: 0.769 ± 0.043

PYLLSLLSPLPL
protein stability index: 0.7005 ± 0.007

PYPPRPATPRPP
protein stability index: 0.682 ± 0.018

QADHGSSPHSIG
protein stability index: 0.717 ± 0.051

QCLSIDARNGVT
protein stability index: 0.668 ± 0.095

QEDNAIAVGWSA
protein stability index: 0.673 ± 0.008

QEEKLSKNSKKK
protein stability index: 0.691 ± 0.036

QEHLSFVATARY
protein stability index: 0.73 ± 0.1

QEKWSKVSKKKE
protein stability index: 0.749 ± 0.19

QERKKKRENKKE
protein stability index: 0.63688 ± 5.9e-05

QFTSPHLNPFRT
protein stability index: 0.6783 ± 0.0058

QFWRSSSSRLAS
protein stability index: 0.687 ± 0.045

QGAINSKRRPDQ
protein stability index: 0.603 ± 0.045

QGLPLCVVQALQ
protein stability index: 0.605 ± 0.042

QGSSLLPLYFPD
protein stability index: 0.622 ± 0.013

QGVGSHIPCGTP
protein stability index: 0.64 ± 0.023

QGVLKYPRPSPP
protein stability index: 0.7071 ± 0.0016

QHHDPYPHQRSP
protein stability index: 0.686 ± 0.023

QIEEDINLVTCN
protein stability index: 0.739 ± 0.049

QKCNPGKRVDRT
protein stability index: 0.692 ± 0.0091

QKENTKEKKKRE
protein stability index: 0.686 ± 0.015

QKFKHQNKLQSE
protein stability index: 0.6803 ± 0.0061

QKGSGITPSPAR
protein stability index: 0.757 ± 0.12

QKHTTKKTKTRY
protein stability index: 0.728 ± 0.037

QKKKKEKQKKKG
protein stability index: 0.692 ± 0.023

QKKNKNKIRTPN
protein stability index: 0.688 ± 0.012

QKKNNKTTKKTK
protein stability index: 0.686 ± 0.012

QKQKKKINIEKR
protein stability index: 0.731 ± 0.017

QKTKEKKKKKRE
protein stability index: 0.708 ± 0.064

QLFTAKHSDPLD
protein stability index: 0.7444 ± 0.0023

QLGALIAHSTTF
protein stability index: 0.665 ± 0.13

QLGVVDVIIGAS
protein stability index: 0.679 ± 0.052

QLMAYFDITYSS
protein stability index: 0.723 ± 0.045

QLPSDENSPANR
protein stability index: 0.615 ± 0.019

QLRYVGRSISRM
protein stability index: 0.659 ± 0.037

QMRRRGARRAKP
protein stability index: 0.743 ± 0.027

QNLRLRKNIDIK
protein stability index: 0.76 ± 0.014

QNQTYQKQKSKE
protein stability index: 0.71 ± 0.068

QNWREDNKGKDI
protein stability index: 0.697 ± 0.032

QPDQSKPSTPEP
protein stability index: 0.674 ± 0.051

QPLDCPPYHPHH
protein stability index: 0.687 ± 0.016

QPPSPHTLRADI
protein stability index: 0.787 ± 0.0037

QQATLYCTTVRK
protein stability index: 0.682 ± 0.014

QRCAVRSSFYVL
protein stability index: 0.641 ± 0.059

QRCWSRKGVNSL
protein stability index: 0.67 ± 0.025

QRGLERVVVGGI
protein stability index: 0.667 ± 0.016

QRKKKDRTMKKR
protein stability index: 0.631 ± 0.026

QRKNQKKKHNRR
protein stability index: 0.7159 ± 0.0027

QRQPPEACPKNS
protein stability index: 0.747 ± 0.01

QRRRQEKRKKQD
protein stability index: 0.654 ± 0.077

QRSGNEDWKDLL
protein stability index: 0.888 ± 0.024

QSAAPISTPSLC
protein stability index: 0.694 ± 0.012

QSCQSKGSEVGE
protein stability index: 0.696 ± 0.054

QSGTRRRKRCSD
protein stability index: 0.693 ± 0.042

QSILGLVERVIK
protein stability index: 0.643 ± 0.032

QSPSHSYLCHLF
protein stability index: 0.583 ± 0.097

QSRSEVFPCHAS
protein stability index: 0.848 ± 0.15

QSSWGGRWVRGG
protein stability index: 0.669 ± 0.011

QTAAGLKPMSNR
protein stability index: 0.777 ± 0.17

QTIRNLEVPLTG
protein stability index: 0.751 ± 0.017

QTKEGSDRHRSS
protein stability index: 0.748 ± 0.015

QTPLPPSAISPP
protein stability index: 0.7124 ± 0.005

QTPPPLPSPHPH
protein stability index: 0.635 ± 0.09

QTPPPRLPPRPP
protein stability index: 0.669 ± 0.062

QTQSNTRIERKK
protein stability index: 0.668 ± 0.057

QTTKPRDPPLHP
protein stability index: 0.787 ± 0.13

QVDLVCKKVVGV
protein stability index: 0.655 ± 0.029

QVFFDTSDHRMG
protein stability index: 0.72 ± 0.029

QVHNTEICVPLV
protein stability index: 0.679 ± 0.013

QVISDEHLCRFV
protein stability index: 0.651 ± 0.083

QVKKKKQNDAKN
protein stability index: 0.646 ± 0.074

QVRCCQEYSSEE
protein stability index: 0.69 ± 0.026

QVWMRDCARKFQ
protein stability index: 0.731 ± 0.012

QYVYIPGLSNLC
protein stability index: 0.632 ± 0.019

QYWIYTGLKSLS
protein stability index: 0.598 ± 0.039

RAAQVFPHVLPR
protein stability index: 0.6726 ± 0.0022

RACLVWKSLGWV
protein stability index: 0.605 ± 0.084

RACRISSIRVGI
protein stability index: 0.651 ± 0.014

RAFVSDLPHPKS
protein stability index: 0.704 ± 0.098

RAKGILPESEQI
protein stability index: 0.72 ± 0.035

RAKRADPSGPPR
protein stability index: 0.724 ± 0.051

RALGDGRLGQDT
protein stability index: 0.682 ± 0.014

RALITRAPSKER
protein stability index: 0.795 ± 0.084

RALSPFPSILPS
protein stability index: 0.719 ± 0.068

RAMGDRSIRLDV
protein stability index: 0.679 ± 0.02

RAPPPPHPSSPP
protein stability index: 0.744 ± 0.079

RAPVRPSEYTRP
protein stability index: 0.681 ± 0.028

RARASLIPNAGT
protein stability index: 0.705 ± 0.037

RARTKGRMRTCR
protein stability index: 0.749 ± 0.15

RASQRGVRGGGG
protein stability index: 0.666 ± 0.02

RAWELPRLRGRE
protein stability index: 0.6682 ± 0.0039

RCAGWSVDVGEG
protein stability index: 0.623 ± 0.17

RCCVPCWFMTLV
protein stability index: 0.555 ± 0.021

RCFQPLRQRMGR
protein stability index: 0.734 ± 0.064

RCGGIWWIVSSV
protein stability index: 0.669 ± 0.081

RCHAFGEWLRGW
protein stability index: 0.733 ± 0.003

RCLGFSACPATY
protein stability index: 0.809 ± 0.14

RCLRGGMLGFGR
protein stability index: 0.627 ± 0.052

RCPRRASSPTLS
protein stability index: 0.843 ± 0.17

RCSPPVFDTGES
protein stability index: 0.652 ± 0.017

RCTLSSFIYFCP
protein stability index: 0.601 ± 0.039

RCTPPPPTPPAT
protein stability index: 0.6832 ± 0.0027

RCVGVLYVAGLE
protein stability index: 0.6533 ± 0.0012

RCVGWRRTPESS
protein stability index: 0.739 ± 0.064

RDGLVPFCVVII
protein stability index: 0.615 ± 0.048

RDKKMKHIKDKR
protein stability index: 0.79 ± 0.11

RDLGPSAISMTV
protein stability index: 0.628 ± 0.043

RDPPLLQPTTSS
protein stability index: 0.648 ± 0.018

RDQMDNILQRFR
protein stability index: 0.656 ± 0.077

RDSMVFEVRYSQ
protein stability index: 0.698 ± 0.1

REEKRREEEGKK
protein stability index: 0.701 ± 0.028

REGGDPPDGGTG
protein stability index: 0.734 ± 0.039

REKEIIIIKKEK
protein stability index: 0.683 ± 0.037

RETSGEVESDVT
protein stability index: 0.678 ± 0.014

REVGSTILAVVH
protein stability index: 0.645 ± 0.031

RFAPCSPPADPS
protein stability index: 0.68 ± 0.019

RFCRPVCRFNLG
protein stability index: 0.647 ± 0.063

RFLCPSSFIELL
protein stability index: 0.794 ± 0.12

RFLESNGRPFHK
protein stability index: 0.673 ± 0.0088

RFRDSGRWLSAE
protein stability index: 0.765 ± 0.063

RFRTVFFPLPRC
protein stability index: 0.716 ± 0.062

RFVCSRLGGSVP
protein stability index: 0.64 ± 0.0029

RGARRHSPTARW
protein stability index: 0.717 ± 0.037

RGAVEAGGWRIG
protein stability index: 0.682 ± 0.0087

RGFGPTPRSSGG
protein stability index: 0.707 ± 0.046

RGFPALLPAPAC
protein stability index: 0.753 ± 0.12
